Patent US20040092720A1 (US Dept. of Health and Human Services, published 2004)

B1: Peptide B8 (peptide)
peptide: PRSTPSLTTKAVLL
B2: Peptide E11 (peptide)
peptide: LTCNILTFGQLEQNVYGITIISGL
B3: Peptide A6 (peptide)
peptide: AAGSHPSRWAGMGRRL
B4: Peptide E47 (peptide)
peptide: SDKAPCITDWQQEDGTVHRTYLRG
B5: Peptide D10 (peptide)
peptide: ALKEGKTSMHPPYSLGQLVPE
B6: Peptide D8 (peptide)
peptide: LRFKKTWKLRALKEGKTSMHP
B7: Peptide D9 (peptide)
peptide: TWKLRALKEGKTSMHPPYSLG
B8: Peptide D6 (peptide)
peptide: FGTLLCIAIVLRFKKTWKLRA
B9: Peptide D7 (peptide)
peptide: CIAIVLRFKKTWKLRALKEGK

biological target: T1, recombinant human IL-6 (human, UniProt P05231 30-212, labeled with radioactive iodine); assay: radioiodinated IL-6 on peptide array
T1 construct: Labeled probe in solution, added to wells that carry the synthetic peptides; also called IL-6 ligand; Interleukin-6
Target sequence in this assay (P05231 30-212 limits assumed): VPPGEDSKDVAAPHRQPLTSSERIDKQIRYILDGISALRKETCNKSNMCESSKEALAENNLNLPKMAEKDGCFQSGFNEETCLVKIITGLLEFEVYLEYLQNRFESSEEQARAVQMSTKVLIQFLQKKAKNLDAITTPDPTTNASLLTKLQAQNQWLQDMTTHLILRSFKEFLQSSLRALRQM

First: B1
Second: B2
The Counts/minute bound (counts/minute) of the first is higher: 1850 for the first, 1820 for the second.

Compared with B3, B4 is higher in Counts/minute bound (counts/minute): 1750 for the first, 2080 for the second.

biological target: T1, recombinant human IL-6; assay: radioiodinated IL-6 on peptide array; experiment D1-D10
Method: Synthetic peptide arrays were constructed in 96-well microtiter plates in accordance with the method set forth in WO 91/02714 (Saxinger), and used to test the binding of recombinant human IL-6 that had been labeled with radioactive iodine (radiolabeling by standard methods). After incubating the radiolabeled IL-6 ligand in a well with each synthetic peptide, a washing step was performed to remove unbound label, and the relative level of radioactivity remaining in each well of the plate was evaluated to determine the relative affinity of each peptide for IL-6 ligand.

Compared with B5, B6 is higher in Counts/minute bound: 4970 counts/minute for the first, 20400 counts/minute for the second.

First: B7
Second: B8
The Counts/minute bound of the first is lower: 5530 counts/minute for the first, 144000 counts/minute for the second.

Work on B9 yielded a Counts/minute bound of 52500 counts/minute.
